For assay [1], the system named is SEMG2(497-509) polypeptide and glycine mutation scanning sequence group. The assay is described as follows: ELISA epitope mapping with glycine mutation scanning sequence group. Type of assay: binding, human. The source says:
To further precisely define the exact epitopes (specific to the level of single amino acid) to which blocking antibodies MM02, MM05, MM07, MM08, MM13, MM14 bind, corresponding ELISA analysis method was established. […] Anti-mouse or anti-rabbit secondary antibodies were then used to detect the corresponding bound antibodies. […] Meanwhile, the different amino acids in the SEMG2(497-509) sequence had different degrees of influence on the binding of similar blocking antibodies (MM02, MM05, MM07, MM08, MM13, MM14) after substitution by glycine. […] The results precisely define the epitope amino acids associated with MM02 and similar antibodies (i.e., antibodies that block the binding between SEMG2 and CD27), and the contribution of each amino acid to the binding.

Assay [2] concerns human malignant melanoma A375 cells. The assay is described as follows: Xenograft model of PBMC-HIS model in human malignant melanoma A375 cells. The format is in vivo, mouse. The following applies: NPSG mice with PBMC and A375, 5 mg/kg intraperitoneally three times a week. The protocol:
30 male NPSG mouse models aged 6-8 week were weighed. A375 cells (with confirmed endogenous expression of SEMG2) were cultured in vitro to obtain 1.8×10^8 cells. After 30 mice were inoculated with PBMC, A375 tumor cells were inoculated on the 3rd day. After that, the proportion of hCD45+ cells in mouse blood and the body weight were measured once a week. After inoculation, tumor volume was measured once a week, and the proportion of hCD45+ cells in mouse blood was measured when the average tumor volume reached about 40-80 mm^3. Mice were grouped randomly based on tumor volume and the proportion of hCD45+ cells in mouse blood, and the administration was started immediately. The date began the administration was considered day 0. […] After the tumor growth, the body weight and tumor volume were measured 3 times a week, and the relative count of hCD45+ cells in mouse blood was monitored by flow cytometry 3 times a week. When the tumor volume reached the end point, blood was collected and the same indexed were detected, and the experiment was ended. […] Measurement of tumor volume: after inoculation and before grouping, when tumors were visible, the tumor volume of experimental animals was measured once a week. After inoculation and grouping, the tumor volume of animals in the experiment was measured twice a week. The tumor volume was measured by a bidirectional measurement method. […]

B1: MM02: mouse monoclonal antibody against SEMG2(497-509), mIgG2b kappa, VH SEQ ID NO:35, VL SEQ ID NO:42 (antibody, V domains shown)
VH: QIQLVQSGPEVKKPGETVRISCKASGYTLTTAGIQWVQKMPGKGLKWIGWINTHSGVPEYAEDFKGRFAFFLETSASTAYLQISNLKNEDTATYFCARLGLLGYWGQGTTLTVSS
VL: DILLTQSPAILSVSPGERVSFSCRASQSIGTTIHWYQQRTNGSPRLLIKYASESISGIPSRFSGSGSGTDFTLSINSVESEDIADYYCQQSNSWPWTFGGGTKLEIKRA
modifications: UNSURE (1)..(115) VH; UNSURE (1)..(109) VL
On to B1, for which the “decrease of antibody binding after glycine substitution” value in assay [1] (substitution of amino acids at positions 501 and 506) is recorded as “more than 70%”. Moreover, the “effect of glycine substitution on antibody binding” value in assay [1] (substitution of amino acids at positions 507 and 509) was “did not significantly affect”.

B2: MM05: mouse monoclonal antibody against SEMG2(497-509), mIgG1 kappa, VH SEQ ID NO:36, VL SEQ ID NO:43 (antibody, V domains shown)
VH: QVQLQQPGAELVRPGASVKLSCEASGYTFTSYWMNWVKQRPGQGLEWIGMIDPSDSETHYNQMFKDKATLTVDKSSSTAYMQLSSLTSEDSAVYYCARYLGGKEGSFDYWGQGTTLTVSS
VL: DIVMSQSPSSLAVSAGEKVTMSCKSSQSLLNSRTRKNYLAWYQQKPGQSPKLLIYWASTRESGVPDRFTGSGSGTDFTLTISSVQAEDLAVYYCKQSYSLPWTFGGGTKLEIKRA
modifications: UNSURE (1)..(120) VH; UNSURE (1)..(115) VL
As for B2, the “growth of tumor in mice” value in assay [2] is given as “significantly inhibited the growth of tumor”.

Source of the values: patent US20230080534A1, “SEMG2 ANTIBODY AND USE THEREOF” (SHANGHAI BIOTROY BIOTECHNIQUE CO., LTD., priority 2020, published 2023).
